{"source": "patent US20020045591A1", "about": "“Methods and therapeutic compositions for treating cancer” (priority 1998, published 2002)", "molecular_target": "T1, LEF-1-β-catenin complex (Mus musculus, UniProt Q02248)", "T1 construct": "expressed in transfected cells; host or cells: CHO cells, transient transfection", "T1 sequence (Q02248 1-781)": "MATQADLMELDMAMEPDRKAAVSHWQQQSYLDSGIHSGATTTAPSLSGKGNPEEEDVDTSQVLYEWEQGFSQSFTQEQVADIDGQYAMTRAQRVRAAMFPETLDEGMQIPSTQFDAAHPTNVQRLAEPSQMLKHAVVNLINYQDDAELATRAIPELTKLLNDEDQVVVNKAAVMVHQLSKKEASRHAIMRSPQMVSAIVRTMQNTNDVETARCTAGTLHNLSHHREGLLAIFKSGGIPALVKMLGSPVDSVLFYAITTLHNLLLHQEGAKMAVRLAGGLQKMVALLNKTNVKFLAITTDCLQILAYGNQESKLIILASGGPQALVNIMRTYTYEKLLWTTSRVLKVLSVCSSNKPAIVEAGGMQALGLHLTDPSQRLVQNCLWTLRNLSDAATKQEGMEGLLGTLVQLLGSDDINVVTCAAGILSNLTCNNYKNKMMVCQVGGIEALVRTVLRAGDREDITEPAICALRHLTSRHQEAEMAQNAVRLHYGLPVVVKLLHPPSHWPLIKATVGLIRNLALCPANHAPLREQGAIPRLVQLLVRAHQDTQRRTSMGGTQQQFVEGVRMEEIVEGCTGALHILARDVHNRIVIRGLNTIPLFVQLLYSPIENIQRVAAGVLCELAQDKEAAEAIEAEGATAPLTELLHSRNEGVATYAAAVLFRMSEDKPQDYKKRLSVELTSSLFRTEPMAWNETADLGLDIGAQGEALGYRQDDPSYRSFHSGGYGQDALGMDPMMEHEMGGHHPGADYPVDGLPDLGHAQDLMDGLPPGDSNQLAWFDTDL", "assay": "Competition with LEF-1 for β-catenin binding (HA-LEF-1 immunoprecipitation, CHO cells)", "conditions": "increasing amounts of N-cadherin tail cDNA, FIG. 8", "excerpt": "Immunoblotting and immunoprecipitation: The following antibodies were used: polyclonal pan-cadherin or monoclonal anti cadherin (CH-19) and polyclonal anti β-catenin antibodies were from Sigma (Holon, Israel). Monoclonal anti β-catenin, 5H10 (from M. Wheelock), anti IL2Rα (from UBI), anti flag (M2, from IBI), anti HA (clone 12CA5, from Boehringer Mannheim, Germany), anti GFP (polyclonal, from Clontech, Palo Alto, Calif.), anti LEF-1 (polyclonal, kindly provided by Dr. R. Grosschedl). Secondary antibodies for Western blotting were goat anti rabbit or anti mouse conjugated to HRP (Amersham, Buckinghampshire, UK), and for immunofluorescence analysis the secondary antibodies were FITC-goat anti mouse (Cappel, USA) or rhodamine-anti rabbit antibodies (from Jackson Immuno-Research, West Grove, Pa.). […]\nThe N-cadherin tail inhibits the formation of a LEF-1-β-catenin complex: The inhibition by N-cadherin of β-catenin driven-transactivation could result from either displacement of LEF-1 binding to β-catenin by N-cadherin, or by formation of a ternary complex (cadherin-LEF-1-β-catenin) that has no transactivation potential. […] After transfection, LEF-1 was immunoprecipitated with anti HA antibody and the associated β-catenin was detected by Western blot analysis (FIG. 8A). […]", "data": [{"molecule": "N-cadherin tail: Cytoplasmic domain of chicken N-cadherin tagged with a Flag epitope (protein, left off: small tags and cut ends) MKRRDKERQAKQLLIDPEDDVRDNILKYDEEGGGEEDQDYDLSQLQQPDTVEPDAIKPVGIRRLDERPIHAEPQYPVRSAAPHPGDIGDFINEGLKAADNDPTAPPYDSLLVFDYEGSGSTAGSLSSLNSSSSGGEQDYDYLNDWGPRFKKLADMYGGGDD", "values": [{"measurement": "β-catenin binding to LEF-1", "result": "inhibited β-catenin binding to LEF-1 in a dose dependent manner"}]}]}
